According to publication PMC6985446:
Numbering of substitutions follows the chain as printed.

Legend:
Experiment in all cases: EMSA
Conditions in all cases: 10 mM Tris pH 8, 150 mM KCl, 500 nM EDTA, 0.1% Triton X-100, 12.5% glycerol, 1 mM DTT, 1 ug poly(dI-dC), 4 C, 30 min
[1] = molecular target: T1, HetR S127A S127A (Nostoc PCC 7120) (UniProt P27709)
T1 sequence: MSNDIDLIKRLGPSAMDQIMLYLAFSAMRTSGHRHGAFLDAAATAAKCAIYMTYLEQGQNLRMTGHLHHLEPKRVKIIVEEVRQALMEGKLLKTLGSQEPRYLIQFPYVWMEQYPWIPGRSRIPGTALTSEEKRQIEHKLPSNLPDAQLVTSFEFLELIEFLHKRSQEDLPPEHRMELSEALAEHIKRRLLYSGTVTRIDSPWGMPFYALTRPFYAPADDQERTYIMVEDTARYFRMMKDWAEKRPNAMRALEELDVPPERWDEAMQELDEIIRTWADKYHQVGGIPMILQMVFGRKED

[2] = molecular target: T2, HetR S130A S130A (Nostoc PCC 7120) (UniProt P27709)
T2 sequence: T1 sequence with A127S, S130A

[3] = molecular target: T3, HetR S130D S130D (Nostoc PCC 7120) (UniProt P27709)
T3 sequence: T1 sequence with A127S, S130D

[4] = molecular target: T4, HetR S179A S179A (Nostoc PCC 7120) (UniProt P27709)
T4 sequence: T1 sequence with A127S, S179A

TGAGTTATACGCTATATCAATGGGGATTTTGAGCATTTTCTACTAGGTAATGAGGGGTTAGACCCCTCGCCTACTGTGCATTTGAGACTTTAAACCTACTAAGAGAATTTACCACTAAAT (double strand) [hetP promoter]
binding [1]: binds | binding [2]: binds | binding [3]: binds | binding [4]: no binding
